Here are results for six molecules from patent publication US6872803 (Kyowa Kirin, dated 2005).

Assay [1] deals with T1, Bovine lung-derived ANP receptor (bovine).
T1 chain: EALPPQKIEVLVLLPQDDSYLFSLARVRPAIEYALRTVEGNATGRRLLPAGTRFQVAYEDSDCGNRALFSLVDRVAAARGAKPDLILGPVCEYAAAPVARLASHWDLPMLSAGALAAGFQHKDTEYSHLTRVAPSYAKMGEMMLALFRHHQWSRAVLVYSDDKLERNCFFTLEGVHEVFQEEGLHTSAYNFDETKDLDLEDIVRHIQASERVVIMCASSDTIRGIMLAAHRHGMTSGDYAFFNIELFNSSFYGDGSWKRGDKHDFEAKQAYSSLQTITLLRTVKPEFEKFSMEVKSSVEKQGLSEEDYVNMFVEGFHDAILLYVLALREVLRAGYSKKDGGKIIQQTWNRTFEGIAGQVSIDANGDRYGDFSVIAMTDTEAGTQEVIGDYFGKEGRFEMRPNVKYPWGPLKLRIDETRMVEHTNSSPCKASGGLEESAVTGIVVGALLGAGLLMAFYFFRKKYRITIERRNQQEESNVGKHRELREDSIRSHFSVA
The assay can be described thus: displacement of 125I-rat ANP from bovine lung membrane fraction, filter binding. A general note: Loss of bound radioactivity is the signal in a displacement assay; it reports binding, not function.

Assay [2] addresses T2, protein-farnesyltransferase derived from bovine brains (bovine, UniProt P29702 2-375; P49355 1-437). The assay can be described thus: cell-based or functional assay.
Assay [3] has as its target T2, protein-farnesyltransferase derived …. Briefly: cell-based or functional assay. This is another data set of the same source.

[ ]: non-standard residue; d: D form.

In the case of H-AFGGRIDRIGAA-NH2 [Compound (h), H-Ala-Phe-Gly-Gly-Arg-Ile-Asp-Arg-Ile-Gly-Ala-Ala-NH2], the half-maximal inhibitory concentration (IC50) in assay [1] came to 2.5 nM.

For the molecule H-FGGRIDRI-NH2 [Compound (g), H-Phe-Gly-Gly-Arg-Ile-Asp-Arg-Ile-NH2], in assay [1], the IC50 turned out to be 3.5 nM.

B1: Compound (i), H-Phe-Gly-Gly-D-Arg-Ile-Asp-Arg-Ile-NH2 (peptide)
peptide: H-FGG[dR]IDRI-NH2
SMILES: CC[C@H](C)[C@H](NC(=O)[C@H](CCCNC(=N)N)NC(=O)[C@H](CC(=O)O)NC(=O)[C@@H](NC(=O)[C@@H](CCCNC(=N)N)NC(=O)CNC(=O)CNC(=O)[C@@H](N)Cc1ccccc1)[C@@H](C)CC)C(N)=O
In the case of B1, the concentration for half-maximal inhibition (IC50) in assay [1] turned out to be 210 nM.

For H-SSGCVLS-OH [Compound (e), H-Ser-Ser-Gly-Cys-Val-Leu-Ser-OH], in assay [2], the “IC50 (µM), transfer of [3H]-farnesyl diphosphate to Ras protein (v-Ki-Ras p21)” value (“IC50 (µM), transfer” below) is 10 µM.

With H-SMGLPCIFM-OH [Compound (f), H-Ser-Met-Gly-Leu-Pro-Cys-Ile-Phe-Met-OH], in assay [2], the “IC50 (µM), transfer” value worked out at 21 µM.

Regarding H-SMGLPCVVM-OH [Compound (d), H-Ser-Met-Gly-Leu-Pro-Cys-Val-Val-Met-OH], in assay [3], the “IC50 (µM), intake of [3H]-farnesyl diphosphate by biotin-lamin-B peptide (SPA enzyme assay kit)” value is 1.2 µM. For the same molecule, in assay [2], the “IC50 (µM), transfer” value came to 1.6 µM.

One may read the IC50 as the concentration needed to halve the response being measured. Read a low IC50 as greater potency.
